From US6562591

Target: Gelsolin (Sigma)

Row | Protein | phosphorylation of Gelsolin in an in vitro kinase assay
1 | HA-Tnik(WT), full length human Tnik isoform 1 with N-terminal HA epitope tag (protein) AYPYDVPDYAMASDSPARSLDEIDLSALRDPAGIFELVELVGNGTYGQVYKGRHVKTGQLAAIKVMDVTGDEEEEIKQEINMLKKYSHHRNIATYYGAFIKKNPPGMDDQLWLVMEFCGAGSVTDLIKNTKGNTLKEEWIAYICREILRGLSHLHQHKVIHRDIKGQNVLLTENAEVKLVDFGVSAQLDRTVGRRNTFIGTPYWMAPEVIACDENPDATYDFKSDLWSLGITAIEMAEGAPPLCDMHPMRALFLIPRNPAPRLKSKKWSKKFQSFIESCLVKNHSQRPATEQLMKHPFIRDQPNERQVRIQLKDHIDRTKKKRGEKDETEYEYSGSEEEEEENDSGEPSSILNLPGESTLRRDFLRLQLANKERSEALRRQQLEQQQRENEEHKRQLLAERQKRIEEQKEQRRRLEEQQRREKELRKQQEREQRRHYEEQMRREEERRRAEHEQEYIRRQLEEEQRQLEILQQQLLHEQALLLEYKRKQLEEQRQAERLQRQLKQERDYLVSLQHQRQEQRPVEKKPLYHYKEGMSPSEKPAWAKEVEERSRLNRQSSPAMPHKVANRISDPNLPPRSESFSISGVQPARTPPMLRPVDPQIPHLVAVKSQGPALTASQSVHEQPTKGLSGFQEALNVTSHRVEMPRQNSDPTSENPPLPTRIEKFDRSSWLRQEEDIPPKVPQRTTSISPALARKNSPGNGSALGPRLGSQPIRASNPDLRRTEPILESPLQRTSSGSSSSSSTPSSQPSSQGGSQPGSQAGSSERTRVRANSKSEGSPVLPHEPAKVKPEESRDITRPSRPASYKKAIDEDLTALAKELRELRIEETNRPMKKVTDYSSSSEESESSEEEEEDGESETHDGTVAVSDIPRLIPTGAPGSNEQYNVGMVGTHGLETSHADSFSGSISREGTLMIRETSGEKKRSGHSDSNGFAGHINLPDLVQQSHSPAGTPTEGLGRVSTHSQEMDSGTEYGMGSSTKASFTPFVDPRVYQTSPTDEDEEDEESSAAALFTSELLRQEQAKLNEARKISVVNVNPTNIRPHSDTPEIRKYKKRFNSEILCAALWGVNLLVGTENGLMLLDRSGQGKVYNLINRRRFQQMDVLEGLNVLVTISGKKNKLRVYYLSWLRNRILHNDPEVEKKQGWITVGDLEGCIHYKVVKYERIKFLVIALKNAVEIYAWAPKPYHKFMAFKSFADLQHKPLLVDLTVEEGQRLKVIFGSHTGFHVIDVDSGNSYDIYIPSHIQGNITPHAIVILPKTDGMEMLVCYEDEGVYVNTYGRITKDVVLQWGEMPTSVAYIHSNQIMGWGEKAIEIRSVETGHLDGVFMHKRAQRLKFLCERNDKVFFASVRSGGSSQVFFMTLNRNSMMNW | Wild type Tnik, but not the kinase mutant form of Tnik, phosphorylated Gelsolin in vitro
2 | HA-Tnik(KM), kinase mutant form of Tnik with N-terminal HA epitope tag (protein) AYPYDVPDYAMASDSPARSLDEIDLSALRDPAGIFELVELVGNGTYGQVYKGRHVKTGQLAAIRVMDVTGDEEEEIKQEINMLKKYSHHRNIATYYGAFIKKNPPGMDDQLWLVMEFCGAGSVTDLIKNTKGNTLKEEWIAYICREILRGLSHLHQHKVIHRDIKGQNVLLTENAEVKLVDFGVSAQLDRTVGRRNTFIGTPYWMAPEVIACDENPDATYDFKSDLWSLGITAIEMAEGAPPLCDMHPMRALFLIPRNPAPRLKSKKWSKKFQSFIESCLVKNHSQRPATEQLMKHPFIRDQPNERQVRIQLKDHIDRTKKKRGEKDETEYEYSGSEEEEEENDSGEPSSILNLPGESTLRRDFLRLQLANKERSEALRRQQLEQQQRENEEHKRQLLAERQKRIEEQKEQRRRLEEQQRREKELRKQQEREQRRHYEEQMRREEERRRAEHEQEYIRRQLEEEQRQLEILQQQLLHEQALLLEYKRKQLEEQRQAERLQRQLKQERDYLVSLQHQRQEQRPVEKKPLYHYKEGMSPSEKPAWAKEVEERSRLNRQSSPAMPHKVANRISDPNLPPRSESFSISGVQPARTPPMLRPVDPQIPHLVAVKSQGPALTASQSVHEQPTKGLSGFQEALNVTSHRVEMPRQNSDPTSENPPLPTRIEKFDRSSWLRQEEDIPPKVPQRTTSISPALARKNSPGNGSALGPRLGSQPIRASNPDLRRTEPILESPLQRTSSGSSSSSSTPSSQPSSQGGSQPGSQAGSSERTRVRANSKSEGSPVLPHEPAKVKPEESRDITRPSRPASYKKAIDEDLTALAKELRELRIEETNRPMKKVTDYSSSSEESESSEEEEEDGESETHDGTVAVSDIPRLIPTGAPGSNEQYNVGMVGTHGLETSHADSFSGSISREGTLMIRETSGEKKRSGHSDSNGFAGHINLPDLVQQSHSPAGTPTEGLGRVSTHSQEMDSGTEYGMGSSTKASFTPFVDPRVYQTSPTDEDEEDEESSAAALFTSELLRQEQAKLNEARKISVVNVNPTNIRPHSDTPEIRKYKKRFNSEILCAALWGVNLLVGTENGLMLLDRSGQGKVYNLINRRRFQQMDVLEGLNVLVTISGKKNKLRVYYLSWLRNRILHNDPEVEKKQGWITVGDLEGCIHYKVVKYERIKFLVIALKNAVEIYAWAPKPYHKFMAFKSFADLQHKPLLVDLTVEEGQRLKVIFGSHTGFHVIDVDSGNSYDIYIPSHIQGNITPHAIVILPKTDGMEMLVCYEDEGVYVNTYGRITKDVVLQWGEMPTSVAYIHSNQIMGWGEKAIEIRSVETGHLDGVFMHKRAQRLKFLCERNDKVFFASVRSGGSSQVFFMTLNRNSMMNW | Wild type Tnik, but not the kinase mutant form of Tnik, phosphorylated Gelsolin in vitro
